According to patent US8030325B2, “Biosynthetic gene cluster for the production of a complex polyketide” (Wyeth LLC, priority 2004, dated 2011):

System: mesencephalic dopanergic neuron cultures
Experiment: High-affinity 3H-DA uptake in ventral mesencephalic cultures, with or without MPP+ exposure
Assay type: cell-based, rat
Details: for protection against MPP toxicity (3H-DA uptake): pre-treatment 1 hr or 24 hr, MPP+ 1 hr, recovery 24 hr or 48 hr
Experimental: Ventral mesencephalic cultures were prepared from E15 rat embryos and maintained for […] before experimentation according to the method of Pong et al., J Neurochem.
Cultures were then exposed to 10 μM 1-methyl-4-phenylpyridinium (MPP+) for 1 hr, in the presence of drug. After the 1 hr exposure, media was changed 3×, and fresh drug was added for an additional 24 hr or 48 hr.

CC/C1=C\CC(/C(C)=C/C(C)C(C)O)OC(=O)C2CCCCN2C(=O)C(=O)C2(O)OC(CCC2C)CC(O)C(C)C(O)CC(O)CC(O)/C(C)=C/C(C)CC(C)C1O (stereo not drawn) [meridamycin]
protection against MPP toxicity (3H-DA uptake): partial, but significant protection

B1: GDNF: glial-derived neurotrophic factor, control (protein, UniProt P39905 78-211, looked up)
Glial cell line-derived …: SPDKQMAVLPRRERNRQAAAANPENSRGKGRRGQRGKNRGCVLTAIHLNVTDLGLGYETKEELIFRYCSGSCDAAETTYDKILKNLSRNRRLVSDKVGQACCRPIAFDDDLSFLDDNLVYHILRKHSAKRCGCI
DA uptake in normal mesencephalic dopanergic neuron cultures (normal cultures, no MPP+): enhanced DA uptake
protection against MPP toxicity (3H-DA uptake): partial, but significant protection
